Measurements taken from the MegaScale stability set (Tsuboyama et al. 2023).

B1: 2K2A (parent)
chain: ELREAFRLYDKEGNGYISTDVMREILAELDETLSSEDLDAMIDEIDADGSGTVDFEEFMGVMT

Variants of: B1
Experiment: folding stability dG (cDNA display proteolysis); higher = more stable
Settings: PBS, room temperature

Row | Variant | folding stability dG [kcal/mol]
1 | ELREAFRLYDKEGNGYISTDVMREILAELDETVSSEDLDAMIDEIDADGSGTVDFEEFMGVMT [L33V] | 0.861
2 | ELREAFRLYDKEGNGYISTDVMREILAELPETLSSEDLDAMIDEIDADGSGTVDFEEFMGVMT [D30P] | 0.553
3 | ELREAFRLYDKEGNGYISTDVMREILAELIETLSSEDLDAMIDEIDADGSGTVDFEEFMGVMT [D30I] | 1.81
4 | ELREAFRLYDKEGNGYISTDWMREILAELDETLSSEDLDAMIDEIDADGSGTVDFEEFMGVMT [V21W] | 1.09
5 | ELREAFRLYDKEGNGYISTDFMREILAELDETLSSEDLDAMIDEIDADGSGTVDFEEFMGVMT [V21F] | 1.41
6 | ELREAFRLYDKEGNGYISTDDMREILAELDETLSSEDLDAMIDEIDADGSGTVDFEEFMGVMT [V21D] | 1.95
7 | ELREAFRLYDKEGNGYISTDIMREILAELDETLSSEDLDAMIDEIDADGSGTVDFEEFMGVMT [V21I] | 2.02
8 | ELREAFRLYDKEGNGYISTDVMREILAELDETLSSEDLDADIDEIDADGSGTVDFEEFMGVMT [M41D] | -0.547
9 | ELREAFRLYDKEGNGYISTDVMREILAELDETLSSEDLDAEIDEIDADGSGTVDFEEFMGVMT [M41E] | -0.173
10 | ELREAFRLYDKEGNGYISTDVMREILAELDETLSSEDLDAMIDEIDAYGSGTVDFEEFMGVMT [D48Y] | 1.3
11 | ELREAFRLYDKEGNGYISTDVMREILAELDETLSSEDLDAMIDEIDAAGSGTVDFEEFMGVMT [D48A] | 1.48
12 | ELREAFRLYDKEGNGYISTDVMREILAELDETLSSEDLDAMIDEIDAWGSGTVDFEEFMGVMT [D48W] | 1.24
13 | ELREAFRLYDKEGNGYISTDVMREILAELDETLSSEDLDAMIDEIDATGSGTVDFEEFMGVMT [D48T] | 1.6
14 | ELREADRLYDKEGNGYISTDVMREILAELDETLSSEDLDAMIDEIDADGSGTVDFEEFMGVMT [F6D] | 0.525
15 | ELREAFRLYDKEGNGYISTDVMREILAELDETLSSEDLDAMIDEIDADGSGTVDFEEFMGVMM [T63M] | 2.17
16 | ELREAFRLYDKEGNGYISTDVMREILAELDETLSSEDLDAMIDEIDADGSGTVDFEEFMGVMI [T63I] | 2.07
17 | ELREAFRLYDKEGNGYISTDVMREILAELDETLSSEDLDAMIDEIDADMSGTVDFEEFMGVMT [G49M] | 1.43
18 | ELREAFRLYDKEGNGYISTDVMREILAELDETLSSEDLDAMIDEIDADGSGNVDFEEFMGVMT [T52N] | 1.49
19 | ELREAFRLYDKEGNGYISTDVMREILAELDETLSSEDLDAMIDEIDADGSGLVDFEEFMGVMT [T52L] | 1.65
20 | ELREAFRLYDKEGNGYISTDVMREILAELDETLSSEDLDAMIDEIDADGSGTVFFEEFMGVMT [D54F] | 1.79
21 | ELREAFRLYDKEGNGYISTDVMREILAELDETLSSEDLMAMIDEIDADGSGTVDFEEFMGVMT [D39M] | 1.32
22 | ELREAFRLYDKEGNGYISTDVMREILAELDETLSSEDLLAMIDEIDADGSGTVDFEEFMGVMT [D39L] | 1.3

Row | Variant | folding stability dG [kcal/mol]
23 | ELREAFRLYDKEGNGYISTDVMREILAELDETLSSEDLTAMIDEIDADGSGTVDFEEFMGVMT [D39T] | 1.3
24 | ELREAFRLYDKEGNGYISTDVMREILAELDETLSSEDLDAMIDEIDADGSGTVDFEEEMGVMT [F58E] | -0.986
25 | ELREAFRLYDKEGNGYISTDVMREILAELDETLSSEDLDAMIDEIDADGSGTVDFEEAMGVMT [F58A] | 0.332
26 | ELREAFRLYDKEGNGYISTDVMREILAELDETLSSEDLDAMIDEIDADGSGTVDFEECMGVMT [F58C] | 0.529
27 | FLREAFRLYDKEGNGYISTDVMREILAELDETLSSEDLDAMIDEIDADGSGTVDFEEFMGVMT [E1F] | 2.36
28 | ELREAFRLYDKQGNGYISTDVMREILAELDETLSSEDLDAMIDEIDADGSGTVDFEEFMGVMT [E12Q] | 1.56
29 | ELREAFRLYDKCGNGYISTDVMREILAELDETLSSEDLDAMIDEIDADGSGTVDFEEFMGVMT [E12C] | 1.61
30 | ELRECFRLYDKEGNGYISTDVMREILAELDETLSSEDLDAMIDEIDADGSGTVDFEEFMGVMT [A5C] | 3.22
31 | ELRELFRLYDKEGNGYISTDVMREILAELDETLSSEDLDAMIDEIDADGSGTVDFEEFMGVMT [A5L] | 3
32 | ELREAFRLYDKEGNGYISTDVMREILAELDETLSSEDLDAMIDEIDCDGSGTVDFEEFMGVMT [A47C] | 1.97
33 | ELREAFRLYDKEGNGYISTDVMREILAELDETLSSEDLDAMIDEIDKDGSGTVDFEEFMGVMT [A47K] | 2.2
34 | ELREAFRLYDKEGNGYISTDVMREILAELDETLSSEDLDAMTDEIDADGSGTVDFEEFMGVMT [I42T] | 0.392
35 | ELREAFRLYDKEGNGYISTDVMREILAELDETLSSEDLDAMIDEIDADGSGTVDVEEFMGVMT [F55V] | 1.32
36 | ELREAFRLYDKEGNGYISTDVMREILAELDETLSSEDLDAMIDEIDADGSGTVDGEEFMGVMT [F55G] | -0.263
37 | ELREAFRLYDKEGNGYISTDVMREILAELDETLSSEDLDAMIDEIDADGSGTVDPEEFMGVMT [F55P] | -0.144
38 | ELREAFRLYDKEGNGYISTDVMREILAELDETLSSEDLDAMIDEIDADGSGTVDSEEFMGVMT [F55S] | 0.161
39 | ELREAFRLYDKEGNGYISTDVMREILAELDETLSSEDLDAMIDEIDADGSGTVDTEEFMGVMT [F55T] | 0.148
40 | ELREAFRLYDKEGNGYISTDVMREILAELDETLSSRDLDAMIDEIDADGSGTVDFEEFMGVMT [E36R] | 1.82
41 | ELREAFRLYDKEGNGYISTDVMREILAELDETLSSVDLDAMIDEIDADGSGTVDFEEFMGVMT [E36V] | 1.69
42 | ELREAFRLYDKEGNGRISTDVMREILAELDETLSSEDLDAMIDEIDADGSGTVDFEEFMGVMT [Y16R] | 1.15
43 | ELREAFRLYDKEGNGWISTDVMREILAELDETLSSEDLDAMIDEIDADGSGTVDFEEFMGVMT [Y16W] | 2.34
44 | ELREAFRLYDKEGNVYISTDVMREILAELDETLSSEDLDAMIDEIDADGSGTVDFEEFMGVMT [G15V] | 0.459

Row | Variant | folding stability dG [kcal/mol]
45 | ELREAFRLYDKEGNIYISTDVMREILAELDETLSSEDLDAMIDEIDADGSGTVDFEEFMGVMT [G15I] | 0.513
46 | ELREAFRLYDKEGNPYISTDVMREILAELDETLSSEDLDAMIDEIDADGSGTVDFEEFMGVMT [G15P] | 0.347
47 | ELREAFRLYDKEGNAYISTDVMREILAELDETLSSEDLDAMIDEIDADGSGTVDFEEFMGVMT [G15A] | 0.588
48 | ELREAFRLYDKEGNGYISTDVMREILAELDETLSSEDLDAMIDKIDADGSGTVDFEEFMGVMT [E44K] | 2.14
49 | ELREAFRLYDKEGNGYISTDVMREILAELDETLSSEDLDAMIDMIDADGSGTVDFEEFMGVMT [E44M] | 2.14
50 | ELREAFRLYDKEGNGYISTDVMREILAELDNTLSSEDLDAMIDEIDADGSGTVDFEEFMGVMT [E31N] | 2.15
51 | ELREAFRLYDKEGNGYISTDVMREILAELDFTLSSEDLDAMIDEIDADGSGTVDFEEFMGVMT [E31F] | 1.89
52 | ELREAFRLYDKEGDGYISTDVMREILAELDETLSSEDLDAMIDEIDADGSGTVDFEEFMGVMT [N14D] | 1.3
53 | ELREAFRLYDKEGPGYISTDVMREILAELDETLSSEDLDAMIDEIDADGSGTVDFEEFMGVMT [N14P] | -0.347
54 | ELREAFRLYDKEGNGYISTDVMREILAELDETLSSEDLDAMIDEFDADGSGTVDFEEFMGVMT [I45F] | 1.21
55 | ELREAFRLYDKEGNGYISTDVMREILAELDETLSSEDLDAMIDEQDADGSGTVDFEEFMGVMT [I45Q] | 0.111
56 | ELREAFRLYDKEGNGYISTDVMREILAELDETLSSEDLDAMIDEIDADGSGTVDFEVFMGVMT [E57V] | 2.26
57 | ELREAFRLYDKEGNGYISTDVMREILAELDETLSSEDLDAMIDEIDADGSGTVDFEKFMGVMT [E57K] | 2.58
58 | ELREAFRLYDKEGNGYISTDVMREILAELDETLKSEDLDAMIDEIDADGSGTVDFEEFMGVMT [S34K] | 1.45
59 | ELREAFPLYDKEGNGYISTDVMREILAELDETLSSEDLDAMIDEIDADGSGTVDFEEFMGVMT [R7P] | 0.375
60 | ELREAFRLYDKEGNGYISTDVMREILAELDETLSSEDLDAMIDEIDADGSGTMDFEEFMGVMT [V53M] | 0.875
61 | ELREAFRLYDKEGNGYISTDVMREILAELDETLSSEDLDAMIVEIDADGSGTVDFEEFMGVMT [D43V] | 1.96
62 | ELREAFRLYDKEGNGYISTDVMREILAELDETLSSEDLDAMIAEIDADGSGTVDFEEFMGVMT [D43A] | 2.29
63 | ELREAFRLYDKEGNGYISVDVMREILAELDETLSSEDLDAMIDEIDADGSGTVDFEEFMGVMT [T19V] | 2.04
64 | ELREAFRLYDKEGNGYISIDVMREILAELDETLSSEDLDAMIDEIDADGSGTVDFEEFMGVMT [T19I] | 2.29
65 | ELREAFRLYDKEGNGYISSDVMREILAELDETLSSEDLDAMIDEIDADGSGTVDFEEFMGVMT [T19S] | 1.23
66 | ELREAFRLYDKEGNGYISADVMREILAELDETLSSEDLDAMIDEIDADGSGTVDFEEFMGVMT [T19A] | 1.32

Row | Variant | folding stability dG [kcal/mol]
67 | ELREAFRLYDKEGNGYISEDVMREILAELDETLSSEDLDAMIDEIDADGSGTVDFEEFMGVMT [T19E] | 0.025
68 | ELREAFRLYDKEGNGYISGDVMREILAELDETLSSEDLDAMIDEIDADGSGTVDFEEFMGVMT [T19G] | 0.526
69 | ELREAFRLYDKEGNGYISTDVMREILAELDETLSSEDLDSMIDEIDADGSGTVDFEEFMGVMT [A40S] | 1.73
70 | ELREAFRLYDKEGNGYISTDVMREILAELDETLSSEDLDKMIDEIDADGSGTVDFEEFMGVMT [A40K] | 2.11
71 | ELREAFRLYDKEGNGYISTEVMREILAELDETLSSEDLDAMIDEIDADGSGTVDFEEFMGVMT [D20E] | 2.16
72 | ELRKAFRLYDKEGNGYISTDVMREILAELDETLSSEDLDAMIDEIDADGSGTVDFEEFMGVMT [E4K] | 1.64
73 | ELREAFRLYDKEGNGYISTDVMREILAELDETLSSEDCDAMIDEIDADGSGTVDFEEFMGVMT [L38C] | 0.399
74 | ELREAFRLYDKEGNGYISTDVMREILASLDETLSSEDLDAMIDEIDADGSGTVDFEEFMGVMT [E28S] | 2.34
75 | ELREAFRLYDKEGNGYISTDVMREILAFLDETLSSEDLDAMIDEIDADGSGTVDFEEFMGVMT [E28F] | 1.77
76 | EEREAFRLYDKEGNGYISTDVMREILAELDETLSSEDLDAMIDEIDADGSGTVDFEEFMGVMT [L2E] | 0.678
77 | ELREAFRLYDKEGNGYISTDVMREWLAELDETLSSEDLDAMIDEIDADGSGTVDFEEFMGVMT [I25W] | 0.943
78 | ELREAFRHYDKEGNGYISTDVMREILAELDETLSSEDLDAMIDEIDADGSGTVDFEEFMGVMT [L8H] | 2.01
79 | ELREAFRLYDKEGNGYISTDVMREILAELDETLSSEDLDAMIDEIDADGLGTVDFEEFMGVMT [S50L] | 1.22
80 | ELREAFRLYDKEGNGYISTDVMREILAELDETLSSEDLDAMIDEIDADGSGTVDFEEFMNVMT [G60N] | 2.15
81 | ELREAFRLYDKEGNGYISTDVMREILAELDETLSSEDLDAMIDEIDADGSHTVDFEEFMGVMT [G51H] | 1.39
82 | ELREAFRLYDKEGNGYISTDVMREILAELDETLSSEILDAMIDEIDADGSGTVDFEEFMGVMT [D37I] | 1.65
83 | ELREAFRLYDKEGNGYISTDVMREILAELDETLSSESLDAMIDEIDADGSGTVDFEEFMGVMT [D37S] | 1.52
84 | ELREAFRLYDKEGNGYISTDVMREILAELDETLSSEYLDAMIDEIDADGSGTVDFEEFMGVMT [D37Y] | 1.26
85 | ELREAFRLYDKEGNGYISTDVMREILAELDETLSSEVLDAMIDEIDADGSGTVDFEEFMGVMT [D37V] | 1.66
